Laboratory results taken from patent US20060204496A1 (published 2006).
Substitutions are numbered along the chain they refer to.

T1: AR2FLAG (solubilized receptor: extracellular domain of human AR2 with FLAG tag at the C terminus), … (human, UniProt P48551 27-243, biotin-labeled (NHS-PEO4-Biotin))
T1 construct: extracellular domain; captured on streptavidin plates for the phage ELISA; also called biotin-labeled AR2FLAG; AR2 chain of type-I interferon receptor; not shown: FLAG tag at the C terminus
T1 sequence (looked up): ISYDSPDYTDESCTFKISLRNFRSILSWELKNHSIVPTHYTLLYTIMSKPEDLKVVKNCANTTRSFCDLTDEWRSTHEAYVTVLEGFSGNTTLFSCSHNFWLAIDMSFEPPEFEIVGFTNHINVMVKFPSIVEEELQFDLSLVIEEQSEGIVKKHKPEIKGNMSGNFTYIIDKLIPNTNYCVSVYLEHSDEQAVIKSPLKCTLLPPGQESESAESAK

T2: AR1FLAG (solubilized receptor: extracellular domain of human AR1 with FLAG tag at the C terminus), … (human, UniProt P17181 28-436, biotin-labeled (NHS-PEO4-Biotin))
T2 construct: extracellular domain; captured on streptavidin plates for the phage ELISA; also called biotin-labeled AR1FLAG; AR1 chain of type-I interferon receptor; not shown: FLAG tag at the C terminus
T2 sequence (looked up): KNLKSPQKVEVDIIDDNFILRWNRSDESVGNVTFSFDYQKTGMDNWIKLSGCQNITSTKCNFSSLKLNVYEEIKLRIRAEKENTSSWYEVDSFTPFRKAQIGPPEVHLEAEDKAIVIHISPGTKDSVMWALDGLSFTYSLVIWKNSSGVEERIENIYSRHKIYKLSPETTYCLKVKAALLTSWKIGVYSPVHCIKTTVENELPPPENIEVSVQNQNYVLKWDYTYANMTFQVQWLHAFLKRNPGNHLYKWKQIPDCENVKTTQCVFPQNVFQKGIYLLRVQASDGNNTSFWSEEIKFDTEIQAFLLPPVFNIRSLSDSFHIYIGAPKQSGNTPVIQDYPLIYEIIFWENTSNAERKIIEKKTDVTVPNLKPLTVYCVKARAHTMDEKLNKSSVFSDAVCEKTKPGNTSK

B1: AR2-13 (anti-AR2 chain scFv clone) (scFv, V domains shown)
VH: QVQLQQSGGELVRPGTSVKVSCKASGYAFTNYLIEWVKQRPGQGLDWIGMINPGSGGTKCNKKFKGKVTLTADKSSSTAYMHLSSLTSDDSAVYFCARSGWVSAMDYWGQGTSVTVSS
VL: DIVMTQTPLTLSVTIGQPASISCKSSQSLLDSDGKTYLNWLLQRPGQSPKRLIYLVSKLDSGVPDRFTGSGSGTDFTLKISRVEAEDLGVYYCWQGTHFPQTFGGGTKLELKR
notes: scFv fused to f1 phage gene 3 product on phage in the ELISA
B2: AR2-45 (anti-AR2 chain scFv clone) (scFv, V domains shown)
VH: B1 VH with G9V, S103Y
VL: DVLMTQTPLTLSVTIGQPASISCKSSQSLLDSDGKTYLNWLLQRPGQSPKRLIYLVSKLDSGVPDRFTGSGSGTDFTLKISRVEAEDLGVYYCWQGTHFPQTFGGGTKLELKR
notes: as for B1
B3: AR2-44 (anti-AR2 chain scFv clone) (scFv, V domains shown)
VH: QVQLQQSEAELVRPETSVKVSCKASGYSFRNYLIEWVKQRPGQGLEWIGVINPGSGNTKYNEKFKGKATLTADKSSSTAYMQLSSLTSDDSAVYFCARDGYYLGTMDYWGQGTSVTVSS
VL: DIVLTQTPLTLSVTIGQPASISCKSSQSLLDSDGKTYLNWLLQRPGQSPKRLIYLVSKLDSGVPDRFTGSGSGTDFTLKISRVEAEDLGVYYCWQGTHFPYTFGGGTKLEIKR
notes: as for B1
B4: AR2-33 (anti-AR2 chain scFv clone) (scFv, V domains shown)
VH: B3 VH with E8G, E15G, S28A, R30I, Y32N, K38Q, T58V, Y108H
VL: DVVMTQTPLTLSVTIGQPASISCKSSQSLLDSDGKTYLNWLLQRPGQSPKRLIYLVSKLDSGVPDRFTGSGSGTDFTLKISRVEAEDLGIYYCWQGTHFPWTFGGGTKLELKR
notes: as for B1
B5: AR2-22 (anti-AR2 chain scFv clone) (scFv, V domains shown)
VH: QVQLQQSGPELVRPGVSVKISCKGSGYRFTDYAIHWVKQSHAKSLEWIGVISTYYGNTRYNQKFKGKATMTVDKSSSTAYMELASLTSEDSVIYYCARSGGSLMDYWGQGTSVTVSS
VL: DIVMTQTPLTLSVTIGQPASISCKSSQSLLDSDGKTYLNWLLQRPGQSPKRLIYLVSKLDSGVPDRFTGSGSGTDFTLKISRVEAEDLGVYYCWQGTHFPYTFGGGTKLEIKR
notes: as for B1
B6: AR2-40 (anti-AR2 chain scFv clone) (scFv, V domains shown)
VH: QVQLQQSGPELVRPGVSVKISCKGSSYKFTDYAMHWVKQSHAKSLEWIGVISTYYGNVKYNQKFKGKATMTVDKSSSTAYMELARLTSEDSAVYYCARSSGSYLDYWGQGTSVTVSS
VL: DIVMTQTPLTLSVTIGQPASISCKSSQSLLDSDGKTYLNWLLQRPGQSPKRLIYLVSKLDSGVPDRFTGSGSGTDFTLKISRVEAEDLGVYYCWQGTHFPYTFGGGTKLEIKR
notes: as for B1
B7: AR2-43 (anti-AR2 chain scFv clone) (scFv, V domains shown)
VH: B5 VH with R28T, I34M, G56S, S85R, V92A, A97V, L103N
VL: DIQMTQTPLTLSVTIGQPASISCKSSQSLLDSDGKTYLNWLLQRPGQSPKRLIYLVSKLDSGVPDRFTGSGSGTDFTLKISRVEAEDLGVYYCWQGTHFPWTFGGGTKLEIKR
notes: as for B1
B8: AR2-37 (anti-AR2 chain scFv clone) (scFv, V domains shown)
VH: QVQLQQSGPELVRPGVSVKISCKGSGYTFTDYAIHWVRQSHAQSLEWIGVIGTYSGNRNYNQKFKGKATMTVDKSSSTAYMELARLTSEDSAIYYCARSAGYSLDFWGQGTSVTVSS
VL: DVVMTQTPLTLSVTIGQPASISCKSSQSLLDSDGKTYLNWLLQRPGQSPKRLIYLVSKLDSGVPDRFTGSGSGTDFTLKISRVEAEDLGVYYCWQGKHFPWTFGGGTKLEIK
notes: as for B1
B9: AR1-24 (anti-AR1 chain scFv clone) (scFv, V domains shown)
VH: QVQLQQSGPELEKPGASVKISCKASGYSFSDYNMNWVKQSNGKSLEWIGNIDPYNGDTNYNQKFKGKATLTLDKSSSTAYMQLKSLTSEDSAVYFCARSRGWLLPFAYWGQGTLVTVSA
VL: DILMTQSQKFMSTSVGDRVSVTCKASQNVGINVAWYQQKPGQSPKALIYSASYRYSGVPDRFTGSGSGTDFTLTISNVQSEDLAEYFCQQYNSYPLTFGGGTKLEIKR
notes: as for B1
B10: AR2-14 (anti-AR2 chain scFv clone) (scFv, V domains shown)
VH: QVQLQQSGAELVRPGTSVKVSCKASGYAFTNYLIEWVKQRPGQGPEWIGVINPGSGNIRYNGKFKGKATLTADKSSSTAYMQLSSLTSDDSAVYFCARDAYYVGAMDYWGQGTSVTVSS
VL: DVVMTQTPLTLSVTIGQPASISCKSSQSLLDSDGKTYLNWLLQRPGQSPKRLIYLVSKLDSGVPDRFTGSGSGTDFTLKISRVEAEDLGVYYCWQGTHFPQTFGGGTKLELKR
notes: as for B1
B11: AR1-41 (anti-AR1 chain scFv clone) (scFv, V domains shown)
VH: QVQLKQSGAELVRPGASVRLSCKASGYTFTFYWINWIKQRPEQGLEWIGRIDPYDSETRYNQKFKDKAILTVDKYSSTAYMQLSSLTSEDSAVYYCAKGVYDGHWFFDVWGAGTSVTVSS
VL: DIVMTQSHKFMSTSVGDRVSITCKASQDVSTAVAWYQQKPGQSPKLLIYSASYRYTGVPARFSGSGSGTDFTFTISSVQTEDLAVYYCQQHYRTPPTFGGGTKLELKR
notes: In the phage ELISA it stood as a mouse scFv fused to the f1 phage gene 3 product on phage
B12: AR2-31 (anti-AR2 chain scFv clone) (scFv, V domains shown)
VH: B6 VH with Q1E, S100Y
VL: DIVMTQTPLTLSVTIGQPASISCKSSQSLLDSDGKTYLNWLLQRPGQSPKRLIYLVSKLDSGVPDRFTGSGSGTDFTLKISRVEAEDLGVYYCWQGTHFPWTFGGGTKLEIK
notes: as for B1

How the values were obtained:
[1] = biological target: T1, AR2FLAG (solubilized receptor: …); test: phage ELISA, biotin-labeled AR2FLAG on streptavidin plates, anti-M13-HRP detection
Protocol: (§1) The single colonies described above were inoculated to 150 μl of 2×YTAG and cultured at 30° C. overnight. 51 μl of the cultures was inoculated to 500 μl of 2×YTAG, and incubated at 37° C. for two hours. Then 100 μl of 2×YTAG containing 2.5×10⁹ pfu of helper phage and 0.3 μl of 1 mol/l IPTG was added to the cultures, and allowed to stand at 37° C. for 30 minutes. The cultures were then incubated at 30° C. overnight, and their culture supernatant was subjected to ELISA. StreptaWell 96-well microtiter plates (Roche) were coated overnight with 100 μl of PBS containing 1.0 μg/ml biotin-labeled AR1FLAG or AR2FLAG The plates were washed with PBST to remove free antigens, and then blocked overnight with 200 μl of 2% M-PBS. 2% M-PBS was removed and the culture supernatant was added to the plates. The plates were allowed to stand for 40 minutes to bind with the antibodies. After the plates were washed, bound phages were detected using HRP-conjugated anti-M13 antibody (Amersham Pharmacia Biotech) diluted with 2% M-PBS and BM blue POD substrate (Roche). The reaction was stopped by adding sulfuric acid, and absorbance was determined at 450 nm.

[2] = biological target: T2, AR1FLAG (solubilized receptor: …); test: phage ELISA, biotin-labeled AR1FLAG on streptavidin plates, anti-M13-HRP detection
Protocol: as §1

Binder | binding result [1] | binding result [2]
B1 | binds | 
B2 | binds | 
B3 | binds | 
B4 | binds | 
B5 | binds | 
B6 | binds | 
B7 | binds | 
B8 | binds | 
B9 |  | binds
B10 | binds | 
B11 |  | binds
B12 | binds | 
